According to the Immune Epitope Database (IEDB):

Assays:
HLA-B*35:01 = experiment: IEDB peptide-MHC binding, purified MHC/competitive/fluorescence; filed as Kd, often an IC50 or EC50 that approximates it; ≥ and ≤ were set here for values at or beyond the usual limits of such assays
HLA-B*07:02 = experiment: IEDB peptide-MHC binding, purified MHC/direct/fluorescence; filed as Kd, often an IC50 or EC50 that approximates it; ≥ and ≤ were set here for values at or beyond the usual limits of such assays
HLA-B*08:01 [1] = experiment: IEDB peptide-MHC binding, purified MHC/competitive/fluorescence; filed as Kd, often an IC50 or EC50 that approximates it; ≥ and ≤ were set here for values at or beyond the usual limits of such assays
HLA-A*69:01 [2] = experiment: as above
HLA-B*15:01 [3] = experiment: as above
HLA-A*31:01 [4] = experiment: as above; conditions: source organism: Zaire ebolavirus
HLA-B*46:01 = experiment: as above
HLA-B*27:03 = experiment: as above
HLA-B*39:01 = experiment: as above
HLA-B*51:01 = experiment: as above
HLA-B*15:17 = experiment: as above; conditions: source organism: Zaire ebolavirus
HLA-B*57:01 = experiment: as above
HLA-B*18:01 = experiment: as above
HLA-A*26:01 [5] = experiment: as above
HLA-A*02:01 [6] = experiment: as above
HLA-A*02:16 = experiment: IEDB peptide-MHC binding, purified MHC/direct/fluorescence; filed as Kd, often an IC50 or EC50 that approximates it; ≥ and ≤ were set here for values at or beyond the usual limits of such assays
HLA-A*02:03 = experiment: as above
HLA-A*68:02 = experiment: as above
HLA-A*23:01 = experiment: as above
HLA-A*02:12 = experiment: as above
HLA-A*03:01 = experiment: as above
HLA-A*29:02 = experiment: as above
HLA-A*02:19 = experiment: as above
HLA-A*24:03 = experiment: as above
HLA-A*02:11 = experiment: as above
HLA-A*01:01 = experiment: as above
HLA-A*69:01 [7] = experiment: as above
HLA-B*15:01 [8] = experiment: as above
HLA-A*31:01 [9] = experiment: as above
HLA-A*11:01 = experiment: as above
HLA-B*58:01 = experiment: as above
HLA-B*40:01 = experiment: as above
HLA-B*08:01 [10] = experiment: as above
HLA-B*27:05 = experiment: as above
HLA-A*26:01 [11] = experiment: as above
HLA-A*30:01 = experiment: as above
HLA-A*02:01 [12] = experiment: as above
HLA-B*44:02 = experiment: as above
[13] = source organism: Zaire ebolavirus
[14] = source organism: Ravn virus - Ravn, Kenya, 1987
[15] = source organism: Orthohantavirus sinnombreense
[16] = source organism: Pseudomonas aeruginosa UCBPP-PA14
[17] = source organism: Pseudomonas aeruginosa
[18] = source organism: Campylobacter jejuni
[19] = source organism: Giardia lamblia ATCC 50803
[20] = source organism: Escherichia coli
[21] = source organism: Escherichia coli 536

Sequence GPGEVSAAM has a Kd (HLA-B*35:01; source organism: Mycobacterium tuberculosis variant bovis BCG str. Pasteur 1173P2) of 0.0039 µM and a Kd (HLA-B*07:02; source organism: Mycobacterium tuberculosis str. Haarlem) of 0.146 µM.
HPKRTERAG was tested, and the Kd (HLA-B*08:01 [1]; source organism: Escherichia coli O139:H28 str. E24377A) was at least 20 µM.
HSGFIYFGK was tested, and the Kd (HLA-A*69:01 [2]; [13]) was at least 20 µM, the Kd (HLA-B*15:01 [3]; [13]) was at least 20 µM and the Kd (HLA-A*31:01 [4]) was 0.797 µM. For the same sequence, the Kd (HLA-B*46:01; [13]) was at least 20 µM, the Kd (HLA-B*27:03; [13]) was at least 20 µM and the Kd (HLA-B*39:01; [13]) was at least 20 µM. The Kd (HLA-B*51:01; [13]) was at least 20 µM, the Kd (HLA-B*15:17) was at least 20 µM and the Kd (HLA-B*57:01; [13]) was at least 20 µM. For the same sequence, the Kd (HLA-B*18:01; [13]) was at least 20 µM, the Kd (HLA-A*26:01 [5]; [13]) was at least 20 µM and the Kd (HLA-A*02:01 [6]; [13]) was at least 20 µM. For the same sequence, the Kd (HLA-A*02:16; [14]) was at least 20 µM, the Kd (HLA-A*02:03; [14]) was at least 20 µM and the Kd (HLA-A*68:02; [14]) was at least 20 µM. It also gave a Kd (HLA-A*23:01; [14]) of at least 20 µM, a Kd (HLA-A*02:12; [14]) of at least 20 µM and a Kd (HLA-A*03:01; source organism: Sudan ebolavirus - Uganda (2000)) of 3.47 µM. For the same sequence, the Kd (HLA-A*29:02; [14]) was at least 20 µM, the Kd (HLA-A*02:19; [14]) was at least 20 µM and the Kd (HLA-A*24:03; [14]) was at least 20 µM. For the same sequence, the Kd (HLA-A*02:11; [14]) was at least 20 µM.
With HTVGLGQGY the Kd (HLA-A*69:01 [2]; [15]) was at least 20 µM, the Kd (HLA-B*46:01; [15]) was at least 20 µM and the Kd (HLA-B*27:03; [15]) was at least 20 µM. For the same sequence, the Kd (HLA-B*39:01; [15]) was at least 20 µM, the Kd (HLA-B*51:01; [15]) was at least 20 µM and the Kd (HLA-B*57:01; [15]) was at least 20 µM. For the same sequence, the Kd (HLA-B*18:01; [15]) was at least 20 µM, the Kd (HLA-A*26:01 [5]; [15]) was 0.0021 µM and the Kd (HLA-A*02:01 [6]; [15]) was at least 20 µM. It also gave a Kd (HLA-A*02:16; source organism: Choclo virus) of at least 20 µM, a Kd (HLA-A*02:03; source organism: Choclo virus) of at least 20 µM and a Kd (HLA-A*23:01; source organism: Choclo virus) of at least 20 µM. It also gave a Kd (HLA-A*02:12; source organism: Choclo virus) of at least 20 µM, a Kd (HLA-A*03:01; source organism: Choclo virus) of at least 20 µM and a Kd (HLA-A*02:19; source organism: Choclo virus) of at least 20 µM. The Kd (HLA-A*24:03; source organism: Choclo virus) was at least 20 µM, the Kd (HLA-A*01:01; source organism: Orthohantavirus andesense) was at least 5 µM and the Kd (HLA-A*02:11; source organism: Choclo virus) was at least 20 µM.
QTEPKTSVV was tested, and the Kd (HLA-B*15:01 [3]; [13]) was at least 20 µM, the Kd (HLA-B*46:01; [13]) was at least 20 µM and the Kd (HLA-B*27:03; [13]) was at least 20 µM. The Kd (HLA-B*39:01; [13]) was at least 20 µM, the Kd (HLA-B*51:01; [13]) was at least 20 µM and the Kd (HLA-B*15:17) was at least 20 µM. The Kd (HLA-B*57:01; [13]) was at least 20 µM, the Kd (HLA-B*18:01; [13]) was at least 20 µM and the Kd (HLA-A*26:01 [5]; [13]) was at least 20 µM. It also gave a Kd (HLA-A*02:01 [6]; [13]) of at least 20 µM, a Kd (HLA-A*02:03; [13]) of at least 20 µM and a Kd (HLA-A*68:02; [13]) of at least 20 µM. The Kd (HLA-A*23:01; [13]) was at least 20 µM, the Kd (HLA-A*02:12; [13]) was at least 20 µM and the Kd (HLA-A*03:01; [13]) was at least 20 µM. It also gave a Kd (HLA-A*29:02; [13]) of at least 20 µM, a Kd (HLA-A*02:19; [13]) of at least 20 µM and a Kd (HLA-A*24:03; [13]) of at least 20 µM. For the same sequence, the Kd (HLA-A*01:01; source organism: Ebola virus - Eckron (Zaire, 1976)) was 16.4 µM and the Kd (HLA-A*02:11; [13]) was at least 20 µM.
Work on RDYRTISPR yielded a Kd (HLA-A*69:01 [7]; [16]) of at least 20 µM, a Kd (HLA-B*15:01 [8]; [16]) of at least 20 µM and a Kd (HLA-B*07:02; [16]) of at least 20 µM. It also gave a Kd (HLA-A*31:01 [9]; [17]) of 0.046 µM, a Kd (HLA-A*03:01; [17]) of 3.44 µM and a Kd (HLA-A*11:01; [17]) of 8.65 µM. For the same sequence, the Kd (HLA-B*58:01; [16]) was at least 20 µM, the Kd (HLA-B*40:01; [16]) was at least 20 µM and the Kd (HLA-B*08:01 [10]; [16]) was at least 20 µM. It also gave a Kd (HLA-A*24:03; [16]) of at least 20 µM, a Kd (HLA-A*01:01; [16]) of at least 20 µM and a Kd (HLA-B*27:05; [16]) of at least 20 µM. It also gave a Kd (HLA-A*26:01 [11]; [16]) of at least 20 µM, a Kd (HLA-A*30:01; [17]) of 2.01 µM and a Kd (HLA-A*02:01 [12]; [16]) of at least 20 µM.
For VKKLWGHLP, the Kd (HLA-A*69:01 [7]; [18]) was at least 20 µM, the Kd (HLA-B*15:01 [8]; [18]) was at least 20 µM and the Kd (HLA-A*31:01 [9]; [18]) was at least 20 µM. For the same sequence, the Kd (HLA-A*03:01; [18]) was at least 20 µM, the Kd (HLA-A*11:01; [18]) was at least 20 µM and the Kd (HLA-B*58:01; [18]) was at least 20 µM. For the same sequence, the Kd (HLA-B*40:01; [18]) was at least 20 µM, the Kd (HLA-A*24:03; [18]) was at least 20 µM and the Kd (HLA-A*01:01; [18]) was at least 20 µM. The Kd (HLA-B*44:02; [18]) was at least 20 µM, the Kd (HLA-B*27:05; [18]) was at least 20 µM and the Kd (HLA-A*26:01 [11]; [18]) was at least 20 µM. For the same sequence, the Kd (HLA-A*30:01; [18]) was at least 20 µM and the Kd (HLA-A*02:01 [12]; [18]) was at least 20 µM.
Sequence VYAYPSGEK has a Kd (HLA-A*69:01 [7]; [19]) of at least 20 µM, a Kd (HLA-B*15:01 [8]; [19]) of at least 20 µM and a Kd (HLA-B*07:02; [19]) of at least 20 µM. It also gave a Kd (HLA-A*03:01; [19]) of 3.37 µM, a Kd (HLA-A*11:01; [19]) of 7.74 µM and a Kd (HLA-B*58:01; [19]) of at least 20 µM. It also gave a Kd (HLA-B*40:01; [19]) of at least 20 µM, a Kd (HLA-B*08:01 [10]; [19]) of at least 20 µM and a Kd (HLA-A*24:03; [19]) of at least 20 µM. It also gave a Kd (HLA-A*01:01; [19]) of at least 20 µM, a Kd (HLA-B*44:02; [19]) of at least 20 µM and a Kd (HLA-B*27:05; [19]) of at least 20 µM. The Kd (HLA-A*26:01 [11]; [19]) was at least 20 µM, the Kd (HLA-A*30:01; [19]) was 4.7 µM and the Kd (HLA-A*02:01 [12]; [19]) was at least 20 µM.
With WCRVGRGTI the Kd (HLA-B*35:01; source organism: Escherichia coli str. K-12 substr. MG1655) was at least 5 µM, the Kd (HLA-A*69:01 [7]; [20]) was at least 20 µM and the Kd (HLA-B*15:01 [8]; [20]) was at least 20 µM. For the same sequence, the Kd (HLA-B*07:02; [20]) was 4.68 µM, the Kd (HLA-A*31:01 [9]; [20]) was at least 20 µM and the Kd (HLA-A*03:01; [20]) was at least 20 µM. It also gave a Kd (HLA-A*11:01; [20]) of at least 20 µM, a Kd (HLA-B*58:01; [20]) of at least 20 µM and a Kd (HLA-B*40:01; [20]) of at least 20 µM. The Kd (HLA-B*08:01 [10]; [20]) was at least 20 µM, the Kd (HLA-A*24:03; [20]) was 13.8 µM and the Kd (HLA-A*01:01; [20]) was at least 20 µM. It also gave a Kd (HLA-B*27:05; [20]) of at least 20 µM, a Kd (HLA-A*26:01 [11]; [20]) of at least 20 µM and a Kd (HLA-A*30:01; [20]) of at least 20 µM. For the same sequence, the Kd (HLA-A*02:01 [12]; [20]) was at least 20 µM.
WLLLRQLPI was tested, and the Kd (HLA-B*15:01 [3]; [21]) was at least 20 µM, the Kd (HLA-B*08:01 [1]; [21]) was 0.0452 µM and the Kd (HLA-A*02:01 [6]; [21]) was 0.0146 µM.
Work on WSHRVTSPK yielded a Kd (HLA-A*01:01; source organism: Vibrio cholerae) of at least 20 µM and a Kd (HLA-A*30:01; source organism: Vibrio cholerae V52) of 0.05 µM.
